Source: paper PMC6078384 (Journal of structural biology, 2013)

Target: the molecule itself
Assay: SEC

B1: ΔN71–AtTHIC (N-terminally truncated Arabidopsis thaliana THIC, HMP-P synthase, lacking the first 71 amino acids) (enzyme)
chain: not shown
Question: For B1, which “stoichiometry N” value is on record?
Answer: 2
